Data reported in the supplement of paper PMC10724198.
± gives the standard deviation of the averaged measurements.

Columns and labels:
[1] = tested on: Saccharomyces cerevisiae; test: protein stability index of tFT-peptide fusion (C-terminal peptide) (PSI (0-1 scale)); higher = more stable (slower turnover); conditions: genetic background: wild type; temperature: 30 C
[2] = tested on: Saccharomyces cerevisiae; test: as above
Protocol: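 MPS profiling in S. cerevisiae of the tFT-X12 degron library: putative degron peptides plus stable controls, 12 aa, fused to the C-terminus of a sfGFP-mCherry timer. Cells are FACS-sorted into 8 mCherry/sfGFP bins and deep-sequenced. PSI runs from 0 (unstable) to 1 (stable). Backgrounds are wild type, das1Δ and doa10Δ at 30 °C, and wild type, das1Δ, cdc34-1 and cdc53-1 at 37 °C; 2-3 technical replicates each.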

[3] = genetic background: cdc34-1, temperature: 37 C
[4] = genetic background: cdc53-1, temperature: 37 C
[5] = genetic background: das1 deletion, temperature: 30 C
[6] = genetic background: das1 deletion, temperature: 37 C
[7] = genetic background: doa10 deletion, temperature: 30 C
[8] = genetic background: wild type, temperature: 30 C
[9] = genetic background: wild type, temperature: 37 C
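Note: PSI is a weighted mean of sequencing reads over stability bins, variants kept only with over 10 reads, mCherry proximal and sfGFP distal, peptide attached via GGGS linker.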

| Sequence | protein stability index [1] | protein stability index [2, 3] | protein stability index [2, 4] | protein stability index [2, 5] | protein stability index [2, 6] | protein stability index [2, 7] | protein stability index [2, 8] | protein stability index [2, 9] |
| --- | --- | --- | --- | --- | --- | --- | --- | --- |
| AFRCVVLCWFLK | 0.415 ± 0.023 | 0.31 ± 0.031 | 0.434 ± 0.0094 | 0.292 ± 0.038 | 0.498 ± 0.0098 | 0.268 ± 0.029 | 0.281 ± 0.014 | 0.413 ± 0.011 |
| AFVSVHRLRLAS | 0.4053 ± 0.0023 | 0.642 ± 0.016 | 0.724 ± 0.014 | 0.605 ± 0.017 | 0.734 ± 0.01 | 0.174 ± 0.0083 | 0.183 ± 0.037 | 0.374 ± 0.018 |
| AGLAPCFLLFVC | 0.133 ± 0.019 | 0.261 ± 0.027 | 0.343 ± 0.019 | 0.3 ± 0.033 | 0.44 ± 0.0063 | 0.0908 ± 0.024 | 0.0981 ± 0.021 | 0.0938 ± 0.026 |
| AGMIKLRKKKVL | 0.417 ± 0.042 | 0.6487 ± 0.003 | 0.7395 ± 0.003 | 0.634 ± 0.021 | 0.7208 ± 0.0012 | 0.208 ± 0.026 | 0.248 ± 0.041 | 0.452 ± 0.0093 |
| AGSPPSRPPWLP | 0.506 ± 0.018 | 0.675 ± 0.047 | 0.7369 ± 0.0062 | 0.679 ± 0.051 | 0.759 ± 0.024 | 0.679 ± 0.034 | 0.678 ± 0.021 | 0.719 ± 0.042 |
| AGVRLIFLFWGF | 0.4945 ± 0.0016 | 0.521 ± 0.05 | 0.608 ± 0.027 | 0.43 ± 0.037 | 0.6496 ± 0.0056 | 0.444 ± 0.028 | 0.407 ± 0.054 | 0.621 ± 0.036 |
| AHSFKCVGVAVR | 0.3246 ± 0.0014 | 0.4628 ± 0.00085 | 0.504 ± 0.01 | 0.332 ± 0.024 | 0.5469 ± 0.0017 | 0.309 ± 0.004 | 0.347 ± 0.032 | 0.544 ± 0.0072 |
| AIREVQYSFFPS | 0.715 ± 0.021 | 0.681 ± 0.041 | 0.755 ± 0.018 | 0.652 ± 0.0074 | 0.7527 ± 0.0042 | 0.6445 ± 0.0018 | 0.66 ± 0.012 | 0.723 ± 0.016 |
| ALERCFIRRVTV | 0.477 ± 0.069 | 0.513 ± 0.013 | 0.582 ± 0.024 | 0.415 ± 0.017 | 0.593 ± 0.021 | 0.322 ± 0.024 | 0.394 ± 0.016 | 0.532 ± 0.01 |
| ALVYVPACRLVV | 0.4017 ± 0.0028 | 0.59 ± 0.049 | 0.624 ± 0.022 | 0.492 ± 0.021 | 0.634 ± 0.024 | 0.256 ± 0.011 | 0.303 ± 0.018 | 0.481 ± 0.018 |
| APCRVPVLGLVF | 0.327 ± 0.034 | 0.249 ± 0.026 | 0.265 ± 0.0055 | 0.235 ± 0.036 | 0.364 ± 0.018 | 0.204 ± 0.016 | 0.257 ± 0.013 | 0.344 ± 0.025 |
| ARRRYEVLAVLV | 0.227 ± 0.0072 | 0.477 ± 0.024 | 0.522 ± 0.025 | 0.459 ± 0.041 | 0.5983 ± 0.0026 | 0.135 ± 0.0081 | 0.149 ± 0.024 | 0.149 ± 0.021 |
| ASTGPLAAIRVY | 0.495 ± 0.013 | 0.519 ± 0.0057 | 0.622 ± 0.023 | 0.396 ± 0.028 | 0.5994 ± 0.0011 | 0.377 ± 0.035 | 0.41 ± 0.019 | 0.588 ± 0.017 |
| AVCVGILIWATV | 0.314 ± 0.08 | 0.0816 ± 0.0045 | 0.0998 ± 0.009 | 0.176 ± 0.029 | 0.275 ± 0.013 | 0.142 ± 0.018 | 0.165 ± 0.025 | 0.264 ± 0.017 |
| AVLVSGMVVWLV | 0.436 ± 0.032 | 0.643 ± 0.053 | 0.709 ± 0.015 | 0.54 ± 0.025 | 0.672 ± 0.06 | 0.32 ± 0.013 | 0.357 ± 0.0096 | 0.563 ± 0.01 |
| AVSFTLVLCSCF | 0.449 ± 0.023 | 0.474 ± 0.025 | 0.489 ± 0.029 | 0.416 ± 0.039 | 0.473 ± 0.023 | 0.389 ± 0.0073 | 0.401 ± 0.019 | 0.444 ± 0.0074 |
| AVVLLFIPRKLL | 0.245 ± 0.079 | 0.472 ± 0.042 | 0.53 ± 0.034 | 0.39 ± 0.029 | 0.568 ± 0.014 | 0.148 ± 0.011 | 0.173 ± 0.021 | 0.293 ± 0.015 |
| AVWVAVEVEAGR | 0.436 ± 0.026 | 0.468 ± 0.045 | 0.498 ± 0.025 | 0.331 ± 0.026 | 0.5447 ± 0.0044 | 0.3 ± 0.009 | 0.333 ± 0.023 | 0.53 ± 0.018 |
| AVYEGLLIRCLI | 0.337 ± 0.011 | 0.4982 ± 0.0037 | 0.5271 ± 0.0033 | 0.392 ± 0.033 | 0.5549 ± 0.0045 | 0.195 ± 0.013 | 0.251 ± 0.021 | 0.392 ± 0.0068 |
| AYFLKRSSILVR | 0.352 ± 0.017 | 0.311 ± 0.05 | 0.376 ± 0.015 | 0.241 ± 0.031 | 0.439 ± 0.011 | 0.2062 ± 0.002 | 0.217 ± 0.034 | 0.395 ± 0.011 |
| CAIHIKIQMSVE | 0.0995 ± 0.011 | 0.0158 ± 0.0046 | 0.0731 ± 0.0079 | 0.0577 ± 0.019 | 0.136 ± 0.031 | 0.0457 ± 0.0051 | 0.0488 ± 0.02 | 0.128 ± 0.028 |
| CALCIGTYIRVV | 0.451 ± 0.029 | 0.495 ± 0.01 | 0.503 ± 0.014 | 0.385 ± 0.029 | 0.552 ± 0.0098 | 0.367 ± 0.029 | 0.345 ± 0.048 | 0.501 ± 0.031 |
| CCLFFLVVFVGW | 0.255 ± 0.021 | 0.167 ± 0.0038 | 0.227 ± 0.027 | 0.191 ± 0.034 | 0.335 ± 0.027 | 0.194 ± 0.029 | 0.183 ± 0.019 | 0.274 ± 0.0075 |
| CCNVLFRVCLFL | 0.353 ± 0.048 | 0.459 ± 0.0095 | 0.526 ± 0.059 | 0.405 ± 0.042 | 0.542 ± 0.022 | 0.277 ± 0.0045 | 0.304 ± 0.025 | 0.4334 ± 0.0041 |
| CFGVVVLGLSLD | 0.491 ± 0.024 | 0.442 ± 0.0052 | 0.503 ± 0.031 | 0.352 ± 0.039 | 0.564 ± 0.015 | 0.319 ± 0.0043 | 0.354 ± 0.027 | 0.531 ± 0.021 |
| CFLPFFIIFIFV | 0.29 ± 0.0067 | 0.214 ± 0.006 | 0.177 ± 0.019 | 0.209 ± 0.037 | 0.32781 ± 3.9e-05 | 0.271 ± 0.0063 | 0.197 ± 0.031 | 0.301 ± 0.015 |
| CFVFIGVGVLLG | 0.376 ± 0.037 | 0.205 ± 0.0083 | 0.387 ± 0.025 | 0.29 ± 0.039 | 0.4436 ± 0.00094 | 0.224 ± 0.0069 | 0.234 ± 0.021 | 0.382 ± 0.014 |
| CIEIDHVIVAIC | 0.446 ± 0.021 | 0.464 ± 0.019 | 0.527 ± 0.062 | 0.348 ± 0.035 | 0.563 ± 0.03 | 0.265 ± 0.0061 | 0.334 ± 0.015 | 0.492 ± 0.018 |
| CKFLYMALLFFW | 0.299 ± 0.061 | 0.278 ± 0.0085 | 0.364 ± 0.0087 | 0.263 ± 0.032 | 0.423 ± 0.025 | 0.313 ± 0.02 | 0.288 ± 0.025 | 0.392 ± 0.00069 |
| CLFLVFCFCVCS | 0.498 ± 0.048 | 0.59488 ± 0.00049 | 0.62042 ± 0.00025 | 0.547 ± 0.031 | 0.596 ± 0.077 | 0.534 ± 0.018 | 0.512 ± 0.02 | 0.531 ± 0.032 |
